In the Immune Epitope Database (IEDB):

How the values were obtained:
HLA-C*04:01 = experiment: IEDB peptide-MHC binding, purified MHC/competitive/fluorescence; filed as Kd, often an IC50 or EC50 that approximates it; ≥ and ≤ were set here for values at or beyond the usual limits of such assays; conditions: source organism: Mycobacterium tuberculosis CDC1551
HLA-B*45:06 = experiment: as above
HLA-B*15:42 = experiment: as above
HLA-B*83:01 = experiment: as above
HLA-B*51:01 = experiment: IEDB peptide-MHC binding, purified MHC/direct/fluorescence; filed as Kd, often an IC50 or EC50 that approximates it; ≥ and ≤ were set here for values at or beyond the usual limits of such assays; conditions: source organism: Bacillus cereus H3081.97
HLA-A*02:19 = experiment: as above; conditions: source organism: Bacillus cereus H3081.97
HLA-B*27:03 = experiment: as above; conditions: source organism: Bacillus cereus H3081.97
HLA-B*39:01 = experiment: as above; conditions: source organism: Bacillus cereus H3081.97
HLA-B*57:01 = experiment: as above; conditions: source organism: Bacillus cereus H3081.97
HLA-A*02:03 = experiment: as above; conditions: source organism: Bacillus cereus H3081.97
HLA-A*03:01 = experiment: as above; conditions: source organism: Bacillus cereus H3081.97
HLA-A*02:01 = experiment: as above; conditions: source organism: Bacillus cereus H3081.97
HLA-A*26:01 = experiment: as above; conditions: source organism: Bacillus cereus H3081.97
HLA-B*46:01 [1] = experiment: as above; conditions: source organism: Bacillus cereus H3081.97
HLA-A*02:11 = experiment: as above; conditions: source organism: Bacillus cereus H3081.97
HLA-B*15:17 = experiment: as above; conditions: source organism: Bacillus cereus H3081.97
HLA-B*18:01 = experiment: as above; conditions: source organism: Bacillus cereus H3081.97
HLA-B*15:01 = experiment: as above; conditions: source organism: Bacillus cereus H3081.97
HLA-A*02:12 = experiment: as above; conditions: source organism: Bacillus cereus H3081.97
HLA-A*29:02 = experiment: as above; conditions: source organism: Bacillus cereus H3081.97
HLA-A*02:16 = experiment: as above; conditions: source organism: Bacillus cereus H3081.97
HLA-A*68:23 = experiment: IEDB peptide-MHC binding, purified MHC/competitive/fluorescence; filed as Kd, often an IC50 or EC50 that approximates it; ≥ and ≤ were set here for values at or beyond the usual limits of such assays; conditions: source organism: Clostridium novyi NT
HLA-A*32:07 = experiment: as above; conditions: source organism: Clostridium novyi NT
HLA-C*14:02 = experiment: as above; conditions: source organism: Clostridium novyi NT
HLA-B*46:01 [2] = experiment: as above; conditions: source organism: Clostridium novyi NT
HLA-B*27:20 = experiment: as above; conditions: source organism: Clostridium novyi NT
HLA-A*32:15 = experiment: as above; conditions: source organism: Clostridium novyi NT
HLA-C*06:02 = experiment: as above; conditions: source organism: Clostridium novyi NT
HLA-C*03:03 = experiment: IEDB peptide-MHC binding, purified MHC/direct/fluorescence; filed as Kd, often an IC50 or EC50 that approximates it; ≥ and ≤ were set here for values at or beyond the usual limits of such assays; conditions: source organism: Clostridium novyi NT
HLA-C*05:01 = experiment: as above; conditions: source organism: Clostridium novyi NT
[3] = source organism: Mycobacterium tuberculosis CDC1551
[4] = source organism: Clostridium novyi NT

RPREATIIY was tested, and the Kd (HLA-C*04:01) was at least 5 µM, the Kd (HLA-B*45:06; [3]) was at least 5 µM and the Kd (HLA-B*15:42; [3]) was at least 5 µM. It also gave a Kd (HLA-B*83:01; [3]) of at least 5 µM.

YSTVRDLFL was tested, and the Kd (HLA-B*51:01) was at least 20 µM, the Kd (HLA-A*02:19) was at least 20 µM and the Kd (HLA-B*27:03) was at least 20 µM. The Kd (HLA-B*39:01) was at least 20 µM, the Kd (HLA-B*57:01) was at least 20 µM and the Kd (HLA-A*02:03) was at least 20 µM. It also gave a Kd (HLA-A*03:01) of at least 20 µM, a Kd (HLA-A*02:01) of at least 20 µM and a Kd (HLA-A*26:01) of at least 20 µM. It also gave a Kd (HLA-B*46:01 [1]) of at least 20 µM, a Kd (HLA-A*02:11) of at least 20 µM and a Kd (HLA-B*15:17) of at most 0.001 µM. The Kd (HLA-B*18:01) was at least 20 µM, the Kd (HLA-B*15:01) was at least 20 µM and the Kd (HLA-A*02:12) was at least 20 µM. It also gave a Kd (HLA-A*29:02) of at least 20 µM and a Kd (HLA-A*02:16) of at least 20 µM.

ASMDNTSPM showed a Kd (HLA-A*68:23) of 0.0297 µM, a Kd (HLA-A*32:07) of 0.0269 µM and a Kd (HLA-C*14:02) of 0.0364 µM. The Kd (HLA-B*46:01 [2]) was 0.0086 µM, the Kd (HLA-B*27:20) was 0.239 µM and the Kd (HLA-A*32:15) was 0.223 µM. The Kd (HLA-C*06:02) was 0.57 µM, the Kd (HLA-B*45:06; [4]) was at least 5 µM and the Kd (HLA-B*15:42; [4]) was at least 5 µM. It also gave a Kd (HLA-B*83:01; [4]) of 0.147 µM, a Kd (HLA-C*03:03) of at most 0.001 µM and a Kd (HLA-C*05:01) of at least 20 µM.
